According to the supplement of paper PMC7877785:
± gives the uncertainty stated by the source.

Experiment: self-splicing fitness, log relative to wild type (ln ratio); higher = more splicing; Tetrahymena group I intron in knt gene, E. coli kanamycin selection, DiMSum; sequences stand for … in CUCUCU…GGAGGGAAAAGUUAUCAGGCAUGCACCUGGUAGCUAGUCUUUAAACCAAUAGAUUGCAUCGGUUUAAAAGGCAAGACCGUCAAAUUGCGGGAAAGGGGUCAACAGCCGUUCAGUACCAAGUCUCAGGGGAAACUUUGAGAUGGCCUUGCAAAGGGUAUGGUAAUAAGCUGACGGACAUGGUCCUAACCACGCAGCCAAGUCCUAAGUCAACAGAUCUUCUGUUGAUAUGGAUGCAGUUCACAGACUAAAUGUCGGUCGGGGAAGAUGUAUUCUUCUCAUAAGAUAUAGUCGGACCUCUCCUUAAUGGGAGCUAGCGGAUGAAGUGAUGCAACACUGGAGCCGCUGGGAACUAAUUUGUAUGCGAAAGUAUAUUGAUUAGUUUUGGAGUACUCGUGGUCG
Outline: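 The eight P1ex-region nucleotides of an intron in the knt kanamycin-resistance gene on pET-22b(+) were all randomised and the library put into E. coli BL21(DE3). Six replicate transformations were grown overnight at 37°C or 30°C on LB agar with or without 25 μg/mL kanamycin, together with 100 μg/mL carbenicillin, 50 μM IPTG and 0.2% rhamnose. Colonies were pooled and amplicon-sequenced on an Illumina HiSeq 2500. Fitness from DiMSum is the error-weighted combination of wild-type-normalised replicate fold changes, kanamycin over none.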

| Sequence | self-splicing fitness (ln) (30 °C) | self-splicing fitness (ln) (37 °C) |
| --- | --- | --- |
| AGCCAGCAAUAUUACGACAA | -3.47 ± 0.23 | -3.18 ± 0.2 |
| UGUUAGCAAUAUUACGUUGA | -1.59 ± 0.21 | -0.731 ± 0.19 |
| GGAAAGCAAUAUUACGAUGA | -1.68 ± 0.2 | -0.498 ± 0.2 |
| GCUAAGCAAUAUUACGGUCG | -2.27 ± 0.11 | -1.34 ± 0.14 |
| GUUCAGCAAUAUUACGCAAU | -1.08 ± 0.16 | -0.106 ± 0.19 |
| ACCUAGCAAUAUUACGACCG | -1.16 ± 0.13 | 0.144 ± 0.12 |
| CAGAAGCAAUAUUACGACGA | -1.52 ± 0.18 | -0.939 ± 0.17 |
| UCAGAGCAAUAUUACGGUCA | -1.72 ± 0.18 | -2.42 ± 0.32 |
| AGGUAGCAAUAUUACGGUCC | -0.156 ± 0.017 | 0.00993 ± 0.035 |
| GCCGAGCAAUAUUACGUCGC | -4.48 ± 0.47 | -1.88 ± 0.25 |
| AUCAAGCAAUAUUACGGUUA | -1.06 ± 0.092 | -0.342 ± 0.095 |
| GUACAGCAAUAUUACGUAUA | -1.77 ± 0.11 | -1 ± 0.12 |
| CGUAAGCAAUAUUACGAUUU | -2.66 ± 0.14 | -1.58 ± 0.12 |
| CCCAAGCAAUAUUACGCUUG | -3.39 ± 0.18 | -1.92 ± 0.17 |
| CGUUAGCAAUAUUACGCCCU | -1.26 ± 0.2 | -0.204 ± 0.19 |
| CCAUAGCAAUAUUACGAGUC | -4.04 ± 0.19 | -2.89 ± 0.21 |
| AACCAGCAAUAUUACGGGUC | -3.62 ± 0.13 | -2.68 ± 0.15 |
| GAAGAGCAAUAUUACGACCA | -1.34 ± 0.14 | -1.46 ± 0.36 |
| AAUCAGCAAUAUUACGUCGG | -1.88 ± 0.1 | -1.02 ± 0.14 |
| AGCUAGCAAUAUUACGUUGU | -2.56 ± 0.17 | -2.32 ± 0.22 |
| GCCAAGCAAUAUUACGUAAU | -1.11 ± 0.062 | -0.183 ± 0.074 |
| GAACAGCAAUAUUACGCGAU | -2.87 ± 0.13 | -2.27 ± 0.14 |
| GGUCAGCAAUAUUACGCAUU | 0.00502 ± 0.059 | 0.0322 ± 0.069 |
| ACGUAGCAAUAUUACGCGCC | -1.23 ± 0.19 | -0.895 ± 0.25 |
| AUCGAGCAAUAUUACGAACU | -1.06 ± 0.17 | -0.725 ± 0.19 |
| CUCCAGCAAUAUUACGAAGC | -3.5 ± 0.23 | -2.6 ± 0.32 |

| Sequence | self-splicing fitness (ln) (30 °C) | self-splicing fitness (ln) (37 °C) |
| --- | --- | --- |
| GCUGAGCAAUAUUACGAACG | -1.53 ± 0.18 | -1.12 ± 0.23 |
| GCAGAGCAAUAUUACGCAAA | -3.37 ± 0.38 | – |
| AGUAAGCAAUAUUACGAAAC | -3.94 ± 0.36 | – |
| AGAUAGCAAUAUUACGUGGG | -2.85 ± 0.15 | -2.49 ± 0.19 |
| CCUAAGCAAUAUUACGGAAC | -3.35 ± 0.3 | -1.68 ± 0.24 |
| UCUAAGCAAUAUUACGCUUU | -3.36 ± 0.21 | -2.94 ± 0.48 |
| AUAUAGCAAUAUUACGGGAU | -2.27 ± 0.16 | -0.966 ± 0.16 |
| UUGUAGCAAUAUUACGUUUG | -1.83 ± 0.15 | -1.87 ± 0.2 |
| GAACAGCAAUAUUACGGAAU | -1.6 ± 0.095 | -1.18 ± 0.11 |
| AAAAAGCAAUAUUACGAUGA | -0.913 ± 0.064 | -0.139 ± 0.084 |
| CUGGAGCAAUAUUACGCGGC | -1.27 ± 0.14 | 0.0532 ± 0.14 |
| UCACAGCAAUAUUACGUACA | -1.53 ± 0.076 | -0.549 ± 0.075 |
| AGACAGCAAUAUUACGGGUU | -1.96 ± 0.1 | -1.12 ± 0.12 |
| GUCCAGCAAUAUUACGGGAC | -3.53 ± 0.2 | -2.94 ± 0.31 |
| AUGGAGCAAUAUUACGAAUA | -2.15 ± 0.34 | -1.08 ± 0.36 |
| AGCGAGCAAUAUUACGUUAU | -3.81 ± 0.36 | -0.895 ± 0.16 |
| UUCCAGCAAUAUUACGAUCC | -1.46 ± 0.45 | – |
| CAUAAGCAAUAUUACGGGAU | -3.51 ± 0.16 | -2.3 ± 0.2 |
| ACCUAGCAAUAUUACGCAGU | -2.58 ± 0.17 | -1.53 ± 0.19 |
| GACAAGCAAUAUUACGGGGU | -2.96 ± 0.12 | -3.16 ± 0.15 |
| GUUCAGCAAUAUUACGACGG | -4.42 ± 0.24 | -3.24 ± 0.37 |
| UCUUAGCAAUAUUACGGGCA | -0.387 ± 0.14 | -0.119 ± 0.16 |
| UGUCAGCAAUAUUACGUGCA | -0.626 ± 0.09 | -0.232 ± 0.1 |
| CCCCAGCAAUAUUACGCGCA | -3.61 ± 0.27 | -1.36 ± 0.21 |
| AACGAGCAAUAUUACGACCU | -1.02 ± 0.22 | -0.178 ± 0.2 |
| CCUAAGCAAUAUUACGCUUG | -4.18 ± 0.36 | -2.98 ± 0.26 |

| Sequence | self-splicing fitness (ln) (30 °C) | self-splicing fitness (ln) (37 °C) |
| --- | --- | --- |
| GUCCAGCAAUAUUACGCAGA | -3.39 ± 0.4 | -1.87 ± 0.22 |
| CAUAAGCAAUAUUACGUAAA | -3.55 ± 0.25 | -2.11 ± 0.17 |
| GCCUAGCAAUAUUACGGUAG | -3.79 ± 0.18 | -2.99 ± 0.27 |
| UGUAAGCAAUAUUACGUGUU | -3.3 ± 0.15 | -0.96 ± 0.12 |
| ACUCAGCAAUAUUACGCUGA | -3.74 ± 0.3 | -3.15 ± 0.34 |
| CUGUAGCAAUAUUACGAUCA | -2.29 ± 0.25 | -1.96 ± 0.42 |
| UCCAAGCAAUAUUACGACGA | -0.735 ± 0.07 | 0.11 ± 0.096 |
| CGCUAGCAAUAUUACGUAAA | -2.46 ± 0.2 | -1.33 ± 0.31 |
| GAUAAGCAAUAUUACGAAGA | -3.41 ± 0.24 | -1.7 ± 0.22 |
| ACCAAGCAAUAUUACGCAAA | -1.56 ± 0.12 | -1.74 ± 0.15 |
| UGCGAGCAAUAUUACGAACA | -1.47 ± 0.14 | 0.122 ± 0.18 |
| UAAAAGCAAUAUUACGCGGA | -1.8 ± 0.08 | -0.32 ± 0.082 |
| GACAAGCAAUAUUACGUUAG | -3.84 ± 0.2 | -3.34 ± 0.19 |
| CGGAAGCAAUAUUACGCUUG | – | -2.42 ± 0.27 |
| CCAAAGCAAUAUUACGUUGC | -3.4 ± 0.15 | -2.12 ± 0.17 |
| AACGAGCAAUAUUACGGGCU | -3.63 ± 0.23 | -2.49 ± 0.22 |
| CGGCAGCAAUAUUACGUCAC | -3.84 ± 0.25 | -2.81 ± 0.29 |
| UAUCAGCAAUAUUACGACAA | -0.495 ± 0.086 | 0.237 ± 0.097 |
| CUUAAGCAAUAUUACGACUU | -4.36 ± 0.32 | -1.74 ± 0.21 |
| GUCCAGCAAUAUUACGCCUA | -0.215 ± 0.095 | -0.244 ± 0.093 |
| UAUCAGCAAUAUUACGGCCG | -0.163 ± 0.11 | 0.391 ± 0.16 |
| CUUCAGCAAUAUUACGCAGU | -3.96 ± 0.43 | -2.9 ± 0.33 |
| CAGUAGCAAUAUUACGAGCA | -2.59 ± 0.3 | -2.3 ± 0.27 |
| CAUUAGCAAUAUUACGCAUG | -4.08 ± 0.46 | -3.16 ± 0.4 |
